What all share (settings): tags: pcDNA3.1 expression
Data set [1] addresses T1, variant nuclease D55G/E736G combination (P14R, D32R, I61R, E311R, D55G, E736G).
T1 chain: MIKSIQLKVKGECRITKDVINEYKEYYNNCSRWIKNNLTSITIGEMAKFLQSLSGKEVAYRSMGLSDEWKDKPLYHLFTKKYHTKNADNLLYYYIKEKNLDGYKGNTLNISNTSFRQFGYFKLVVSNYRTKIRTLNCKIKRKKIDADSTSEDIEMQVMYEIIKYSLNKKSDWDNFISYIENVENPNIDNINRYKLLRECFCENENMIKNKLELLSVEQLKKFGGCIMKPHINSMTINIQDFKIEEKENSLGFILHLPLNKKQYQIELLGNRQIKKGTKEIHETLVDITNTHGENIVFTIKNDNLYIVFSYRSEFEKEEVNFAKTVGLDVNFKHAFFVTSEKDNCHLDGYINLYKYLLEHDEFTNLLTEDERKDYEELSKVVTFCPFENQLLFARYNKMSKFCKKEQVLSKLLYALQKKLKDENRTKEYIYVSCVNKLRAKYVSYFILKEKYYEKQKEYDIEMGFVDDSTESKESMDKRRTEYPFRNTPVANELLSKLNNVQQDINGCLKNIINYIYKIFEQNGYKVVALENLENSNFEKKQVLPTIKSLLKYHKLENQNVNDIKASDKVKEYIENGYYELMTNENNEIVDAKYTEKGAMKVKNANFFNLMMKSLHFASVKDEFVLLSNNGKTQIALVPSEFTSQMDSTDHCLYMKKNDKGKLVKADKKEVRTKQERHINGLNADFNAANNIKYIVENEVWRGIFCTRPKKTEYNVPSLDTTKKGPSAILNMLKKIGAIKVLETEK
The data set can be described thus: cell_activity; PAM 5'-ATTG-3'.

The target of data set [2] is T2, variant nuclease E736G combination (P14R, D32R, I61R, E311R, E736G).
T2 chain: T1 chain with G55D
The data set can be described thus: cell_activity; PAM 5'-ATTG-3'.

The target in data set [3] is T3, variant nuclease SEQ ID NO: 53 (P14R, D32R, I61R, E311R, T338G, E736G).
T3 chain: T1 chain with G55D, T338G
The data set can be described thus: cell_activity; % indels; HEK293T; PAM 5'-TTTA-3'.

The values that follow come from patent publication US20240035010, “COMPOSITIONS COMPRISING A VARIANT POLYPEPTIDE AND USES THEREOF” (Arbor Biotechnologies, Inc., published 2024).

Positions count from the first letter of the chain named.

B1: EMX1 crRNA ; EMX1 target (ssRNA ; dsDNA)
RNA: CUUGUUGUAUAUGUCCUUUUAUAGGUAUUAAACAACCCGCCGCUUCCUGAGCCAUC
DNA 1: CCGCCGCTTCCTGAGCCATC
DNA 2: GATGGCTCAGGAAGCGGCGG
B1: the figures for the indel editing activity in data set [1] and in data set [2] were 10.5 fold of WT and 10.1 fold of WT, respectively.

B2: VEGFA crRNA ; VEGFA target (ssRNA ; dsDNA)
RNA: CUUGUUGUAUAUGUCCUUUUAUAGGUAUUAAACAACUCCAGACCACCAAUGGGCAC
DNA 1: TCCAGACCACCAATGGGCAC
DNA 2: GTGCCCATTGGTGGTCTGGA
As to B2, the indel editing activity in data set [3] was 3.04 fold of WT.
